For data set [1] the following is noted: single-arm trial, all patients treated; cited from earlier work.
For data set [2] the following is noted: cited from earlier work.
In the next data set the target is FcRn receptor (Homo sapiens, UniProt P55899). Description: FcRn binding analysis by Biacore (steady state). The conditions noted are these: pH 6.0, PBS with 0.05% tween-20. The protocol:
Binding to the FcRn receptor was determined at pH 7.4 and pH 6.0 using a Biacore T200 (serial no. 1909913) using single-cycle kinetics and running Biacore T200 Evaluation Software V 2.0.1. A CM5 chip was coupled with FcRn in sodium acetate pH 5.5 using standard amine chemistry. Serial dilution of bispecifics and controls were measured in PBS pH 7.4 with 0.05% tween-20 (9 points; 2-fold dilution series; 8000 nM Top conc.) and in PBS pH 6.0 with 0.05% tween-20 (3 points; 2-fold dilution series; 4000 nM Top conc.). A flow rate of 30 µl/min was used and an association time of 40 seconds and dissociation time of 75 seconds. Steady state analysis was used to analyze samples.
On the technique in general: SPR reads the build-up and loss of mass on a sensor chip optically.

Another data set addresses T1, CD3 (Homo sapiens, UniProt P07766).
T1 construct: Jurkat E6.1 cells, which express CD3 on the cell surface; endogenous in cells; host or cells: Jurkat E6.1
Nature of the data set: CD3 binding analysis by FACS on CD3-positive Jurkat E6.1 cells. The conditions noted are these: for median fluorescence intensity: Jurkat E6.1 (CD3-positive), median of duplicate. How it is done: (§1) Both cell lines were cultured in RPMI 1640 supplemented with 1% pen/strep and 10% fetal bovine serum at a concentration of 2 x 10^5 to 1 x 10^6 cells/ml. Cells were washed in fresh medium before the experiment and 100,000 cells per well were seeded in a 96-wells plate (duplicate wells). The dilution series of 6 antibodies were made in phosphate-buffered saline (PBS). The antibodies were diluted 10 times in the cell suspension and incubated at 4° C. in the dark for 30 minutes. After incubation, the cells were washed twice in cold PBS / 0.5% BSA, and incubated with anti-HIS-PE (only for 200) or anti-IgG1-PE (for all other compounds) at 4° C., in the dark for 30 minutes. After the second incubation step, the cells were washed twice. 7AAD was added as a live-dead staining. Detection of the fluorescence in the Yellow-B channel (anti-IgG1-PE and anti-HIS-PE) and the Red-B channel (7AAD) was done with the Guava 5HT flow cytometer. Median fluorescence intensity in the Yellow-B channel (anti-IgG1-PE and anti-HIS-PE) in life cells was determined with Kaluza software.

In a further data set the test system is MOLT-4 cells. Description: CD3 binding analysis by FACS on CD3 negative MOLT-4 cells. The conditions noted are these: MOLT-4 (CD3 negative). The protocol: as §1
(In flow cytometry, cells or beads pass a laser one at a time.)

T1 sequence (P07766 23-207): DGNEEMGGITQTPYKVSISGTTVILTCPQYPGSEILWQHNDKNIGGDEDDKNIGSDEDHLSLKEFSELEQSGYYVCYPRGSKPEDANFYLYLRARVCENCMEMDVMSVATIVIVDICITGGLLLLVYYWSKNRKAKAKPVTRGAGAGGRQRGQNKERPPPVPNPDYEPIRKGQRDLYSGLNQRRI
T1 sequence (P04234 22-171 partner): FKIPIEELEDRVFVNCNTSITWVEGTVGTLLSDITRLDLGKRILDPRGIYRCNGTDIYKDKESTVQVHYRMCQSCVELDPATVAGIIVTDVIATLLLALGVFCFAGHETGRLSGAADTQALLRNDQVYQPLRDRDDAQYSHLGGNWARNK
T1 sequence (P09693 23-182 partner): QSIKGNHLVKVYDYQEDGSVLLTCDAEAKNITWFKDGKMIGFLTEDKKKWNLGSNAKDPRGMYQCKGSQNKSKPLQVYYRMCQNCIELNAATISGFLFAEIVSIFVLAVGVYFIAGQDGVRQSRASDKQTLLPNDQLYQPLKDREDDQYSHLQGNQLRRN
T1 sequence (P20963 22-164 partner): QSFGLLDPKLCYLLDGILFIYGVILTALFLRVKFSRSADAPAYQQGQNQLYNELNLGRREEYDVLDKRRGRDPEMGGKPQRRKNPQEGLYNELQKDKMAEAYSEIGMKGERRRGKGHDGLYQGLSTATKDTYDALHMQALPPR
Sequence of FcRn receptor (P55899 24-297 limits assumed): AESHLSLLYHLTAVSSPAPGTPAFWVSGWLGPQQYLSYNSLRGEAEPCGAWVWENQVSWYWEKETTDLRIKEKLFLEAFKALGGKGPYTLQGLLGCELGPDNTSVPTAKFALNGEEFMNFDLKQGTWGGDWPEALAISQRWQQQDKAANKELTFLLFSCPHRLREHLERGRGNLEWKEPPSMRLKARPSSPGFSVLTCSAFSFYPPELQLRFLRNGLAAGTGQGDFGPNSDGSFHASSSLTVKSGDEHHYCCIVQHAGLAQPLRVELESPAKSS
Sequence of FcRn receptor (P61769 21-119 partner): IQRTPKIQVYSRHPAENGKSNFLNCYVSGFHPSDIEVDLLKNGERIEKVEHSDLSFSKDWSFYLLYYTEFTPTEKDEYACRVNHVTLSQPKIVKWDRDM

As to blinatumomab, in data set [1], the complete remission rate is given as 32% and the “minimal residual disease (MRD) response” value is on record as 31%. Moreover, the serum half-life in data set [2] was 2.11 h.
rituximab: in the data set with FcRn receptor, the “RMAX (RU)” value was determined as 96.4 RU. Besides, the median fluorescence intensity in the data set with CD3 (0.32 nM) is 58.28; in the data set with CD3 (1 nM), 56.55; with CD3 (3.16 nM) it was 55.37; with CD3 (10 nM), 60.83; with CD3 (31.6 nM), 58.71; with CD3 (100 nM), 55.49. Also, the median fluorescence intensity turned out to be 54.99 in the data set with CD3 (316 nM); 66.36 with CD3 (1000 nM); 78.96 in the data set with MOLT-4 cells (1 nM); 75.92 in the data set on MOLT-4 cells (10 nM); 68.42 in the data set on MOLT-4 cells (100 nM); 67.39 in the data set with MOLT-4 cells (1000 nM). Further, in the data set with CD3 (Jurkat E6.1, result in words), the “binding to the CD3 positive Jurkat E6.1 cell line” value is listed as “not”.

These data come from patent publication US20230190951A1, “CONJUGATES OF ANTIBODIES AN IMMUNE CELL ENGAGERS” (SYNAFFIX B.V., priority 2020, published 2023).
